Assay results reported in patent publication US20250000945A1, “Suppression of Neurodegeneration with Zinc Transporter Protein 7” (The Regents of the University of California, priority 2021, published 2025).

Columns and labels:
border cells = assay: Border cell migration in stage 10 egg chambers expressing Catsup RNAi (rescue by co-expressed transgenes); format: in vivo, Drosophila; settings: co-expressed with Catsup RNAi in border cells
Text: Border cell clusters are composed of 4-6 migratory cells that surround and carry two non-migratory polar cells. Expression of a Catsup RNAi line in outer, migratory border cells using fruitlessGal4^51 inhibited migration (FIG. 2A). The defect was rescued by co-expression of UAS-CatsupV5 (FIG. 2B). Reduction of Catsup::GFP confirmed the effectiveness of the RNAi (FIGS. 2C, C′ and 2D, D′). Border cell migration was also impaired when Catsup RNAi was driven by c306Gal4 (FIG. 2E), which is expressed in both polar and migratory cells.
ZIP7 resides in the ER membrane and transports Zn^2+ from the ER to the cytosol^64. To test whether the Zn^2+ transporter activity of Catsup was important for border cell migration, we introduced point mutations, H315A and H344A, which replace histidine residues that are required for Zn^2+ transport and are conserved between Catsup, ZIP7 and a more distant family member from Arabidopsis IRT1. […] We generated transgenic flies expressing the mutants under Gal4/UAS control and included a V5 tag so that we could monitor protein abundance and localization. We then co-expressed each of these RNAi-resistant transgenes with CatsupRNAi and evaluated protein expression and border cell migration (FIGS. 5B-5E). […] All the proteins were stably expressed and correctly localized to the ER (FIGS. 5B-5E), therefore the lack of rescue was likely a consequence of impaired transporter activity rather than impaired expression, localization, or another function. […] From these experiments, we conclude that Zn^2+ transport is an essential function of Catsup in promoting ERAD.
Catsup mutant fly was generated by ethyl methanesulfonate (EMS) mutagen^37. The mutation results in glycine(G) to aspartic acid(D) replacement at amino acid 178. The FLP/FRT system was used to generate the Catsup^G178D homozygous mutant clones by combining FRT40A-Catsup^G178D with hsFLP12,yw;ubi:GFPnls, FRT40A or hsFLP12,yw;ubi:RFPnls, FRT40A/(CyO). Catsup::GFP expression pattern visualized by the line from VDRC 318542 in the fTRG stocks library. The UAS-CatsupRNAi transgenic line is from VDRC 100095 P{KK103630}VIE-260B. Wild type rescue w[*]; sna[Sco]/CyO; P{w[+mCJ=UAS-Catsup. V5}6 Bloomington 63229. Additional transgenic Drosophila stocks used: UAS-wRNAi/Cyo is a lab stock, UAS-PleRNAi Bloomington 25796 y[1] v[1]; P{y[+t7.7] v[+t1.8]=TRiP.JF01813}attP2, UAS-Ple is Bloomington 37539 w[*]; P{w[+mC]=UAS-ple.T}331f2, O-fucosyltransferasel Bloomington 9376 P{UAS-O-fut.}]1.1, UAS-Notch.Intracellular.Domain on third chromosome was a gift from Artavanis-Tsakonas lab^71. The ER stress marker UAS-Xbp1-EGFP.HG Bloomington 60731 w[*]; P{w[+mC]=UAS-Xbp1.EGFP.HG}3, UAS-HSC70-3 Bloomington 5843 w[126]; P{w[+mC]=UAS-Hsc70-3. WT}B. Catsup point mutations were cloned into vector pUASt-attb with forward primer ctctgaatagggaattggg[…] (SEQ ID NO:1) and reverse primer ccgcagatctgttaacgtca[…] (SEQ ID NO:2). The vector was injected to attp2 flies y1 w67c23; P{CaryP}attP2 by BestGene Inc.
When generating UAS-Catsup-point-mutations, we designed the construct so it cannot be targeted by the CatsupRNAi sequences by substituting redundant codons for the same amino acids within the region targeted by the RNAi. The RNAi resistant sequence is below with nucleic acid substitutions in lower case:
Point mutations were designed by changing codons at the following site CatsupH183A (CAC to GCC), CatsupH187A (CAT to GCT), CatsupH315A (CAT to GCT), CatsupH344A ([…]). […]

[1] = test system: follicle cells / border cells; assay: ER stress markers (Xbp1::EGFP, PDI) in cells lacking Catsup; format: in vivo, Drosophila; settings: mosaic clones expressing CatsupRNAi
Text: To test if Catsup knockdown induces the UPR in follicle cells, we compared expression of the ER stress marker Xbp1::EGFP^59 in mosaic border cell clusters composed of heterozygous Catsup^+/− and homozygous Catsup^−/− mutant cells. We found high levels of Xbp1 in Catsup^−/− but not Catsup^+/− border cells (FIG. 4A-A″). […] Accumulation of XBP1 and PDI are indicative of induction of an adaptive UPR^60. This effect was rescued by co-expression of CatsupV5 (FIG. 4C-C″).
(§1) Catsup mutant fly was generated by ethyl methanesulfonate (EMS) mutagen^37. The mutation results in glycine(G) to aspartic acid(D) replacement at amino acid 178. The FLP/FRT system was used to generate the Catsup^G178D homozygous mutant clones by combining FRT40A-Catsup^G178D with hsFLP12,yw;ubi:GFPnls, FRT40A or hsFLP12,yw;ubi:RFPnls, FRT40A/(CyO). Catsup::GFP expression pattern visualized by the line from VDRC 318542 in the fTRG stocks library. The UAS-CatsupRNAi transgenic line is from VDRC 100095 P{KK103630}VIE-260B. Wild type rescue w[*]; sna[Sco]/CyO; P{w[+mCJ=UAS-Catsup. V5}6 Bloomington 63229. […]

[2] = test system: border cells expressing Rh1^G69D; assay: ER stress (Xbp1::EGFP) and migration of border cells expressing misfolded rhodopsin Rh1^G69D; format: in vivo, Drosophila; settings: overexpression
Text: To test whether ER stress impairs border cell migration, we expressed a misfolded rhodopsin protein Rh1^G69D, known to induce ER stress^61 As expected, Rh1^G69D induced Xbp1 expression in border cells (FIG. 4D insert). […] Since loss of Catsup caused ER stress, we wondered if Catsup over-expression might suppress ER stress.
as §1, with “63229. Additional transgenic Drosophila stocks used: UAS-wRNAi/Cyo is a lab stock, UAS-PleRNAi Bloomington 25796 y[1] v[1]; P{y[+t7.7] v[+t1.8]=TRiP.JF01813}attP2, UAS-Ple is Bloomington 37539 w[*]; P{w[+mC]=UAS-ple.T}331f2, O-fucosyltransferasel Bloomington 9376 P{UAS-O-fut.}]1.1, UAS-Notch.Intracellular.Domain on third chromosome was a gift from Artavanis-Tsakonas lab^71.” for “63229.”

[3] = test system: misfolded rhodopsin protein Rh1^G69D; assay: Rh1^G69D protein abundance in cells over-expressing Catsup (ERAD); format: in vivo, Drosophila; settings: border cells, overexpression
Chain of misfolded rhodopsin protein Rh1^G69D (P06002 whole entry G69D): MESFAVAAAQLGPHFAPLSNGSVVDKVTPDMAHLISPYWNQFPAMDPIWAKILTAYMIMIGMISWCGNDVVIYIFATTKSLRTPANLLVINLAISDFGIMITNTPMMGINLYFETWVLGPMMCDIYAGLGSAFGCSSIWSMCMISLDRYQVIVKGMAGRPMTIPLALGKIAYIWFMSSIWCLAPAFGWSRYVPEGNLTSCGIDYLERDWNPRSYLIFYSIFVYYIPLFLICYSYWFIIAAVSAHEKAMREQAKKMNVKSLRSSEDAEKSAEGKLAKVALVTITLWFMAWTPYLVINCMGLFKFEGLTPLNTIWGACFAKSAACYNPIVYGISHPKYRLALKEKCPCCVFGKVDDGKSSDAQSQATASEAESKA
Method: The UPR reinstates ER homeostasis by upregulating the protein-folding capacity of the ER and increasing its protein-degradation capacity^62. During ERAD, misfolded proteins are extruded from the ER, ubiquitinated, and degraded by the proteasome^60. To test whether Catsup overexpression might enhance ERAD, we examined Rh1^G69D protein abundance in cells over-expressing Catsup.
Female flies were fattened with yeast for 2 days at 29° C. Egg chambers were dissected from ovaries of female flies in Schneider's medium with 10% FBS (pH=6.85-6.95) as described previously^72. Freshly dissected egg chambers were fixed in 4% paraformaldehyde and then incubated overnight in 1×PBS with 0.4% triton and the following primary antibodies: mouse anti-PDI (1:200) (ADI-SPA-891-D Enzo Life Sciences, Inc.), chicken anti-GFP (1:200) (ab13970 Abcam plc.), Ple (anti-TH) antibody (a gift from the Craig Montell lab), mouse anti-Notch intracellular domain (1:100) C17.9C6 DSHB, rat Ecadherin antibody DCAD2 (1:50) DSHB, V5 Tag Monoclonal Antibody-Alexa Fluor 555 (2F11F7) Invitrogen, mouse anti-dEGFR (1:2000) E2906 Sigma Aldrich. O-fut1 antibody was used to confirm O-fut1 overexpression, and was a gift from Kenneth D. Irvine lab 73. Secondary antibodies were incubated for 2 hours, together with Hoechst stain for nuclei, and phalloidin stain for F-actin. […]

photoreceptor cells = assay: Rh1G69D-induced photoreceptor cell death (rough eye) in flies; format: in vivo; settings: flies expressing Rh1G69D, ZIP7 overexpression
Text: FIGS. 6A-6B. ZIP7 prevents Rh1G69D-induced photoreceptor cell death, which causes a rough eye. (FIG. 6A) Percentage of flies having the Rh1^G69D genotype that develop rough eye in presence and absence of ZIP7 expression. (FIG. 6B) Comparison of eye morphology of flies having the Rh1^G69D genotype in presence and absence of ZIP7 expression.
ZIP7 overexpression prevented photoreceptor cell death in the eyes of flies expressing mutant forms of rhodopsin.

Vap33 = assay: Neurodegeneration due to expression of Vap33 in flies; format: in vivo; settings: ZIP7 overexpression
Text: FIG. 9. ZIP7 overexpression suppresses neurodegeneration due to expression of Vap33.
(§2) Overexpression of ZIP7 may mitigate ER stress and neuronal cell death in protein aggregation diseases (FIG. 7). We screened aggregate prone proteins for ZIP7 rescue (FIG. 8). ZIP7 overexpression suppressed neurodegeneration due to expression of Vap33 (FIG. 9) and amyloid β42 (FIG. 10).

amyloid β42 = assay: Neurodegeneration due to expression of amyloid β42 in flies; format: in vivo; settings: ZIP7 overexpression
Text: FIG. 10. ZIP7 overexpression suppresses neurodegeneration due to expression of amyloid β42.
as §2

[4] = test system: ubiquitinated proteins / proteasome; assay: Ubiquitinated protein levels (FK2/DNA ratio) in egg chambers with and without MG132; format: in vivo, Drosophila
Method: FIGS. 12A-12C. Overexpressing ZIP7 decreases ubiquitinated protein levels. (FIG. 12A) Egg chambers with and without ZIP7 overexpression (OE) were incubated with media for 5 hours. (FIG. 12B) Egg chambers with and without ZIP7 overexpression (OE) were treated with 10 μM MG132 proteasome inhibitor for 5 hours. (FIG. 12C) Comparison of FK2/DNA ratio egg for chambers incubated with media or 10 μM MG132 proteasome inhibitor for 5 hours with or without ZIP7 overexpression.
Egg chambers with and without ZIP7 overexpression (OE) were incubated with media in the presence or absence of the MG132 proteasome inhibitor (10 μM) for 5 hours (FIGS. 12A and 12B). Overexpressing ZIP7 decreased ubiquitinated protein levels and the FK2/DNA ratio (FIG. 12C).

[5] = egg chambers, media with or without 10 μM MG132, 5 hours

B1: CatsupV5: V5-tagged wild type Catsup, the Drosophila homolog of ZIP7, expressed under Gal4/UAS control (protein, UniProt Q9V3A4 1-449, looked up)
Protein catecholamines up: MAKQVADYQCSKLQLYQKLALVVILGAVLFSLPALCAGQGNPSFKYSREANENFDPQKAPRAEHHHHHDHDHDHGHHHHGHDHDHDHDHGHDHGHHHHGHDHDHDHDHGHHHHGHDERHTKAKPDLDMSTIWLHSIGSTLLISAAPFVLLYIIPLDNSEAMKPRLKVLLAFASGGLLGDAFLHLIPHATHPHSHGEHGHDHGHDHHHHHDGEEHEHGHSHDMSIGLWVLGGIIAFLSVEKLVRILKGGHGGHGHSHGAPKPKPVPAKKKSSDKEDSGDGDKPAKPAKIKSKKPEAEPEGEVEISGYLNLAADFAHNFTDGLAIGASYLAGNSIGIVTTITILLHEVPHEIGDFAILIKSGCSRRKAMLLQLVTALGALAGTALALLGAGGGDGSAPWVLPFTAGGFIYIATVSVLPELLEESTKLKQSLKEIFALLTGVALMIVIAKFE
modifications: V5 tag
notes: V5-tagged wild type Catsup, the Drosophila homolog of ZIP7, expressed under Gal4/UAS control
Q: Which “rescue of border cell migration defect” value (border cells) does the source give for B1 here?
A: The value was “rescued”.

Q: What about the “rescue of ER stress (Xbp1 and PDI accumulation)” value [1] of the same molecule?
A: The value was “rescued”.

Q: What about the “Rh1^G69D-induced Xbp1 expression” value [2] of the same molecule?
A: The value was “rescued”.

Q: And the “border cell migration blocked by Rh1^G69D” value [2]?
A: Its value is “rescued”.

Q: What about the “Rh1^G69D protein abundance” value [3] of the same molecule?
A: The value was “reduced Rh1^G69D protein to an undetectable level”.

B2: ZIP7: zinc transporter protein 7, overexpressed from a transgene; SEQ ID NO:4 (Drosophila), SEQ ID NO:5 (human) (protein, UniProt Q92504 1-469, looked up)
Zinc transporter SLC39A7: MARGLGAPHWVAVGLLTWATLGLLVAGLGGHDDLHDDLQEDFHGHSHRHSHEDFHHGHSHAHGHGHTHESIWHGHTHDHDHGHSHEDLHHGHSHGYSHESLYHRGHGHDHEHSHGGYGESGAPGIKQDLDAVTLWAYALGATVLISAAPFFVLFLIPVESNSPRHRSLLQILLSFASGGLLGDAFLHLIPHALEPHSHHTLEQPGHGHSHSGQGPILSVGLWVLSGIVAFLVVEKFVRHVKGGHGHSHGHGHAHSHTRGSHGHGRQERSTKEKQSSEEEEKETRGVQKRRGGSTVPKDGPVRPQNAEEEKRGLDLRVSGYLNLAADLAHNFTDGLAIGASFRGGRGLGILTTMTVLLHEVPHEVGDFAILVQSGCSKKQAMRLQLLTAVGALAGTACALLTEGGAVGSEIAGGAGPGWVLPFTAGGFIYVATVSVLPELLREASPLQSLLEVLGLLGGVIMMVLIAHLE
Q: With B2 as the molecule, how does the “photoreceptor cell death (rough eye)” value (photoreceptor cells) read?
A: The value was “prevented”.

Q: What about the “neurodegeneration due to expression of Vap33” value (Vap33) of the same molecule?
A: The value was “suppressed”.

Q: What about the “neurodegeneration due to expression of amyloid β42” value (amyloid β42) of the same molecule?
A: The value was “suppressed”.

Q: And the FK2/DNA ratio [4, 5]?
A: The FK2/DNA ratio was “decreased”.

Q: What about the ubiquitinated protein levels [4, 5] of the same molecule?
A: The ubiquitinated protein levels was “decreased”.

Q: What about the “activity of the proteasome” value ([4]; even in the presence of a proteasome inhibitor) of the same molecule?
A: Its value is “enhances”.
